For assay [1], the target named is T1, cellular hPD-L2 expressed on CHOK-1 cells (Homo sapiens, UniProt Q9BQ51).
T1 construct: GFP; expressed in transfected cells; host or cells: CHO-K1
T1 sequence (Q9BQ51 20-273): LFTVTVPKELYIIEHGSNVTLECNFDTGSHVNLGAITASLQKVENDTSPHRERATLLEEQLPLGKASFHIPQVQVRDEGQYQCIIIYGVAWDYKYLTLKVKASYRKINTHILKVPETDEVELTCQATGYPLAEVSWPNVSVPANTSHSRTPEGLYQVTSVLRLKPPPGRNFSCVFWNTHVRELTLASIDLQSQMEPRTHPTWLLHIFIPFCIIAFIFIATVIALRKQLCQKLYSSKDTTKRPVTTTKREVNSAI
In words: Binding of antibodies to cellular hPD-L2 on CHO-K1 cells by flow cytometry. Particulars: compared to a panel of commercially available anti-PD-L2 antibodies. The protocol: CHO-K1 cells over-expressing either hPDL2-GFP or mPD-L2 GFP were detached, washed in phosphate buffered saline (PBS) and adjusted to a cell concentration of around 1 million cells in cytometry buffer (CB, PBS containing 1% […]). Around 80,000 cells were then distributed into a round-bottom 96 well plate and the plate was centrifuged for 3 minutes at 400 g at 4° C. and supernatant discarded. Appropriate antibody concentrations in 50 microliter volumes were added to the wells and incubated for 30 minutes at 6-8° C. The plate was washed 3 times with PBS and relevant secondary antibodies (either AlexaFluor 647 Goat anti-Mouse IgG (H+L) (Invitrogen A21235/lot 1915807) or AlexaFluor 647 Goat anti-Rat IgG (H+L) (Invitrogen A21247/lot 1921562) were added for 30 minutes at 4° C. Cells were again washed with PBS two times, resuspended in CB and analyzed in either the Sony ID7000 Spectral Cell analyzer (Sony) or the GALLIOS Flow Cytometer (Beckman-Coulter) was used. EC50 was calculated using the Sigmoidal 4PL equation of the GraphPad Prism-9 software.

Assay [2] addresses T2, recombinant hPD-1 binding to CHOK-1 cell expressing hPD-L2 (Homo sapiens, UniProt Q9BQ51).
T2 construct: GFP; host or cells: CHO-K1
T2 sequence (Q9BQ51 20-273): T1 sequence (Q9BQ51 20-273)
Briefly: Blocking of recombinant hPD-1 binding to cellular hPD-L2 by flow cytometry. Particulars: compared to a panel of commercially available anti-PD-L2 antibodies. The class given is cell-based. The protocol: CHO-K1 cells over-expressing either hPDL2-GFP were detached, washed in phosphate buffered saline (PBS) and adjusted to a cell concentration of around 1 million cells in CB. Around 80,000 cells were then distributed into a round-bottom 96 well plate and the plate was centrifuged for 3 minutes at 400 g at 4° C. and supernatant discarded. A constant concentration of ligand recombinant hPD-1 ligand (Sino Biological 10377-H08H/lot LC13JA2207) of 15 micrograms/mL was incubated with respective concentration of antibody, added to the cells and incubated for 30 min at 6-8° C. Cells were washed 3 times in PBS and then incubated with a rabbit polyclonal anti-His (Abcam Ab1187/lot GR3369369-1) in CB and subsequently washed three times in PBS. Cells were then incubated with a labeled anti-rabbit secondary (AlexaFluor 647 Goat anti-Rabbit IgG (H+L) (Invitrogen A21244/lot 1910774) for 15 minutes at 4° C., washed two times in PBS, resuspended in CB and analyzed in the Sony ID7000 Spectral Cell analyzer (Sony).

B1: VH0/VK0-mIgG1: parental murine anti-PD-L2 antibody on mIgG1 backbone; SEQ ID NO: 21/SEQ ID NO: 22 (antibody, V domains shown)
VH: QVQLQQSGAELVRPGTSVKVSCKASGYAFSNYFIEWVKQRPGQGLEWIGLNIPGSGGSNYAEKFKGKATLTADKSSSTAYMQLSSLTSEDSAVYFCARRRLPPDWYFDVWGTGTTVTVSS
VL: DVVMTQTPLSLPVSLGDQASISCRSSQSLVHSDGNTYLHWYLQKPGQSPKLLIYKVSNRFSGVPDRFSGSGSGTDFTLKISRVEAEDLGVYFCSQSTHVPWTFGGGTKLEIK
For B1, the “binding activity against cellular hPD-L2” value in assay [1] is recorded as “superior binding activity”. For the same molecule, the “blocking activity against recombinant hPD-1 binding to CHOK-1 cell expressing hPD-L2” value in assay [2] is listed as “superior blocking activity”.

Source of the values: patent publication US20250179187A1, “ANTI PD-L2 ANTIBODY” (REJUVERON SENESCENCE THERAPEUTICS AG, priority 2022, published 2025).
